Data taken from paper doi:10.1101/2022.01.25.477770 (bioRxiv, 2022).

Key:
Test in all cases: ELISA
Settings in all cases: both partners purified
[1] = target: T1, MERS-CoV prefusion-stabilized spike (S2P) (MERS-CoV EMC/2012 (GenBank AFS88936), UniProt K0BRG7, stabilised)
T1 construct: also called MERS-CoV S2P

[2] = target: T2, RaTG13 prefusion-stabilized spike (S2P) (Bat coronavirus RaTG13 (GenBank …, UniProt A0ABF7PLN6, stabilised))
T2 construct: also called RaTG13 S2P

[3] = target: T3, WIV1 prefusion-stabilized spike (S2P) (Bat SARS-like coronavirus WIV1 …, UniProt U5WI05, stabilised)
T3 construct: also called WIV1 S2P

[4] = target: T4, SARS-CoV prefusion-stabilized spike (S2P) (SARS-CoV Urbani (AAP13441.1), UniProt P59594, stabilised)
T4 construct: also called SARS-CoV S2P

[5] = target: T5, SHC014 prefusion-stabilized spike (S2P) (Bat SARS-like coronavirus RsSHC014 …, UniProt U5WLK5, stabilised)
T5 construct: also called SHC014 S2P

Measured: binding result

B1: antibody WS6 (IgG) (antibody, V domains shown)
VH: EVQFQQSGTVLARPGASVKMSCKASGYTFTNYWIHWVKQRPGQGLEYIGGTYPGNGDTTYNQKFKGKAKVTAVTPTSTAYMDLSSLTNEDSAVYYCTRTGSYFDYWGQGTTLTVSS
VL: QIVLTQSPAIMSASPGEKVTISCSATSSVSYIYWYQQRPGSSPKPWIYRTSNLASGVPVRFSGSGSGTSYSLTISNMEAEDAATYYCQQYQSYPPTFGAGTKLELK
notes: also called mAb WS6
binds: all assays above
